Data from the Human Domainome abundance scans (Beltran et al. 2025).
± gives the uncertainty stated by the source.

B1: Double-stranded RNA-specific adenosine deaminase, residues 296 to 358; numbered along this chain, P55265 (parent)
chain: MAEIKEKICDYLFNVSDSSALNLAKNIGLTKARDINAVLIDMERQGDVYRQGTTPPIWHLTDK

Variants of: B1
Experiment: abundance fitness (aPCA) (normalised: wild type 0, dead -1); higher = more abundant; growth selection in yeast, the domain comes from the species named
Settings: Homo sapiens

N36T and T30Q are within error of each other in abundance fitness: -0.011 ± 0.058 for the first, -0.021 ± 0.086 for the second.

Going from T30D to D34F, the abundance fitness falls from 0.413 ± 0.053 to -0.75 ± 0.09.

First: N26G
Second: N26R
The abundance fitness of the first is higher: -0.001 ± 0.05 for the first, -0.202 ± 0.047 for the second.

First: V38W
Second: V38G
The abundance fitness of the first is lower: -0.739 ± 0.081 for the first, -0.128 ± 0.06 for the second.

Compared with V38C, V38Q is lower in abundance fitness: 0.12 ± 0.085 for the first, -0.276 ± 0.075 for the second.

Going from V38I to I57E, the abundance fitness falls from 0.035 ± 0.07 to -0.257 ± 0.075.

I57S and I57H are within error of each other in abundance fitness: -0.265 ± 0.057 for the first, -0.185 ± 0.11 for the second.

E3Q and E3R are within error of each other in abundance fitness: -0.368 ± 0.11 for the first, -0.334 ± 0.05 for the second.

E3F and V48K are within error of each other in abundance fitness: -0.561 ± 0.11 for the first, -0.701 ± 0.11 for the second.

V48N and V48A are within error of each other in abundance fitness: -0.286 ± 0.091 for the first, -0.284 ± 0.055 for the second.

Compared with S18M, S18H is higher in abundance fitness: -0.684 ± 0.1 for the first, -0.366 ± 0.081 for the second.

Going from A24Y to A24D, the abundance fitness falls from -0.406 ± 0.1 to -0.838 ± 0.13.

First: A24T
Second: A24H
The abundance fitness of the first is higher: -0.276 ± 0.077 for the first, -0.488 ± 0.092 for the second.

G46L and G46N are within error of each other in abundance fitness: -0.974 ± 0.088 for the first, -0.827 ± 0.15 for the second.

First: G46T
Second: G46S
The abundance fitness of the first is lower: -0.856 ± 0.12 for the first, -0.618 ± 0.072 for the second.

Going from G46M to G46R, the abundance fitness falls from -0.498 ± 0.12 to -0.902 ± 0.087.

Going from L21S to L21A, the abundance fitness rises from 0.05 ± 0.049 to 0.263 ± 0.068.

D17A and A2K are within error of each other in abundance fitness: 0.405 ± 0.22 for the first, 0.168 ± 0.075 for the second.

A2D and A2M are within error of each other in abundance fitness: 0.207 ± 0.099 for the first, 0.045 ± 0.071 for the second.

First: L39D
Second: L39R
The abundance fitness of the first is higher: -0.125 ± 0.086 for the first, -0.365 ± 0.055 for the second.

Compared with T61V, T61F is lower in abundance fitness: -0.193 ± 0.051 for the first, -0.737 ± 0.14 for the second.

L29E and L29V are within error of each other in abundance fitness: 0.045 ± 0.11 for the first, -0.1 ± 0.054 for the second.

Compared with L29N, A32R is lower in abundance fitness: 0.041 ± 0.054 for the first, -0.485 ± 0.067 for the second.

Compared with A32C, A32E is higher in abundance fitness: -0.121 ± 0.08 for the first, 0.159 ± 0.074 for the second.

Compared with A32K, A32Y is higher in abundance fitness: -0.37 ± 0.096 for the first, -0.088 ± 0.079 for the second.

First: I27Y
Second: W58C
The abundance fitness of the first is lower: -0.944 ± 0.14 for the first, -0.384 ± 0.095 for the second.

K5C and K5H are within error of each other in abundance fitness: -0.924 ± 0.15 for the first, -0.68 ± 0.1 for the second.

K5Q and I8S are within error of each other in abundance fitness: -0.28 ± 0.065 for the first, -0.304 ± 0.15 for the second.

I8H and I8T are within error of each other in abundance fitness: -0.766 ± 0.2 for the first, -0.713 ± 0.14 for the second.

Compared with P55R, P55G is higher in abundance fitness: -0.698 ± 0.075 for the first, -0.434 ± 0.05 for the second.

Compared with T54N, T54A is lower in abundance fitness: 0.306 ± 0.064 for the first, -0.04 ± 0.065 for the second.

Compared with D62I, D62L is higher in abundance fitness: -0.708 ± 0.15 for the first, -0.437 ± 0.063 for the second.

D62N and D62Y are within error of each other in abundance fitness: -0.432 ± 0.092 for the first, -0.437 ± 0.077 for the second.

C9F and C9E are within error of each other in abundance fitness: 0.086 ± 0.11 for the first, 0.002 ± 0.053 for the second.

First: C9T
Second: K25C
The abundance fitness of the first is higher: 0.119 ± 0.054 for the first, -0.36 ± 0.1 for the second.

Going from K25Q to K25Y, the abundance fitness falls from -0.024 ± 0.058 to -0.626 ± 0.12.

K25N and I4D are within error of each other in abundance fitness: -0.234 ± 0.07 for the first, -0.121 ± 0.058 for the second.

Going from I4E to N14H, the abundance fitness rises from -0.287 ± 0.075 to 0.085 ± 0.062.

N14Q and N14Y are within error of each other in abundance fitness: 0.008 ± 0.087 for the first, 0.045 ± 0.096 for the second.

Y11I and Y11A are within error of each other in abundance fitness: -0.214 ± 0.15 for the first, -0.126 ± 0.047 for the second.

First: Y11Q
Second: Q45P
The abundance fitness of the first is higher: -0.204 ± 0.075 for the first, -0.912 ± 0.14 for the second.

Going from Q45H to Q45Y, the abundance fitness falls from -0.024 ± 0.055 to -0.637 ± 0.081.

Compared with N22T, N22M is lower in abundance fitness: -0.141 ± 0.087 for the first, -0.493 ± 0.1 for the second.

Compared with I40R, I40L is higher in abundance fitness: -0.054 ± 0.048 for the first, 0.128 ± 0.039 for the second.

First: P56Y
Second: R44E
The abundance fitness of the first is lower: -0.693 ± 0.41 for the first, -0.126 ± 0.057 for the second.

Going from R44D to R44A, the abundance fitness rises from -0.175 ± 0.13 to 0.079 ± 0.05.

G28E and G28K are within error of each other in abundance fitness: -0.15 ± 0.065 for the first, -0.229 ± 0.081 for the second.

Going from G28I to G28H, the abundance fitness rises from -1.01 ± 0.15 to -0.508 ± 0.097.

E43V and E43T are within error of each other in abundance fitness: -0.873 ± 0.076 for the first, -1.07 ± 0.14 for the second.

A37R and A37Q are within error of each other in abundance fitness: -0.054 ± 0.04 for the first, -0.11 ± 0.06 for the second.

Compared with A37M, A37T is higher in abundance fitness: -0.386 ± 0.071 for the first, -0.173 ± 0.068 for the second.

T53R and F13H are within error of each other in abundance fitness: 0.238 ± 0.21 for the first, 0.1 ± 0.1 for the second.

First: F13Q
Second: F13C
The abundance fitness of the first is higher: 0.541 ± 0.077 for the first, 0.19 ± 0.059 for the second.

S19T and L12G are within error of each other in abundance fitness: -0.236 ± 0.26 for the first, -0.441 ± 0.09 for the second.

Compared with L12H, Y49K is higher in abundance fitness: -0.46 ± 0.21 for the first, 0.161 ± 0.064 for the second.

Going from Y49Q to E6M, the abundance fitness falls from 0.051 ± 0.11 to -0.25 ± 0.1.

Compared with E6R, E6P is lower in abundance fitness: -0.338 ± 0.056 for the first, -0.831 ± 0.13 for the second.

E6L and S16L are within error of each other in abundance fitness: -0.57 ± 0.068 for the first, -0.525 ± 0.054 for the second.

Going from D41Y to D41P, the abundance fitness rises from -1.06 ± 0.24 to -0.421 ± 0.076.

Compared with R50I, R50K is higher in abundance fitness: -0.798 ± 0.11 for the first, 0.12 ± 0.1 for the second.

Going from R50T to M1R, the abundance fitness rises from -0.406 ± 0.078 to 0.151 ± 0.059.

First: M1L
Second: M1W
The abundance fitness of the first is lower: -0.29 ± 0.096 for the first, 0.017 ± 0.06 for the second.

V15K and V15A are within error of each other in abundance fitness: -0.089 ± 0.058 for the first, -0.147 ± 0.055 for the second.

Going from V15R to L60I, the abundance fitness falls from -0.231 ± 0.049 to -0.628 ± 0.12.

First: L60Q
Second: L60N
The abundance fitness of the first is lower: -0.764 ± 0.16 for the first, -0.425 ± 0.099 for the second.

Going from L60C to K31I, the abundance fitness falls from -0.662 ± 0.1 to -1.14 ± 0.37.

Going from K31R to K31Y, the abundance fitness rises from -0.006 ± 0.036 to 0.173 ± 0.11.

H59I and H59Y are within error of each other in abundance fitness: -0.525 ± 0.09 for the first, -0.466 ± 0.078 for the second.

First: H59K
Second: H59N
The abundance fitness of the first is higher: 0.294 ± 0.065 for the first, -0.224 ± 0.058 for the second.

Compared with H59A, H59C is lower in abundance fitness: 0.288 ± 0.048 for the first, 0.095 ± 0.073 for the second.

M42L and M42K are within error of each other in abundance fitness: -0.369 ± 0.047 for the first, -0.303 ± 0.08 for the second.

Going from M42F to M42E, the abundance fitness rises from -0.965 ± 0.14 to -0.22 ± 0.078.

First: D10W
Second: D10N
The abundance fitness of the first is lower: -0.297 ± 0.073 for the first, 0.085 ± 0.077 for the second.

D10T and I35D are within error of each other in abundance fitness: -0.157 ± 0.053 for the first, -0.225 ± 0.1 for the second.

First: I35W
Second: R33F
The abundance fitness of the first is lower: -1.1 ± 0.38 for the first, 0.19 ± 0.085 for the second.

Compared with R33L, R33Y is higher in abundance fitness: -0.028 ± 0.046 for the first, 0.185 ± 0.074 for the second.

Q51G and G52D are within error of each other in abundance fitness: -0.215 ± 0.057 for the first, -0.105 ± 0.054 for the second.

Compared with G52I, G52H is higher in abundance fitness: -0.779 ± 0.12 for the first, -0.234 ± 0.06 for the second.

D47V and D47L are within error of each other in abundance fitness: 0.288 ± 0.047 for the first, 0.297 ± 0.045 for the second.

Compared with D47K, L23C is lower in abundance fitness: 0.024 ± 0.07 for the first, -0.474 ± 0.091 for the second.

Compared with L23F, L23T is higher in abundance fitness: -1.03 ± 0.16 for the first, -0.421 ± 0.079 for the second.

L23V and K7L are within error of each other in abundance fitness: -0.316 ± 0.053 for the first, -0.402 ± 0.067 for the second.

Compared with K7Y, K7A is higher in abundance fitness: -0.796 ± 0.085 for the first, -0.348 ± 0.066 for the second.

K7R showed an abundance fitness of -0.266 ± 0.062.
